Data on 41 sequences can be found in the nanobody polyreactivity screen of Harvey et al. (2022).

The nature of this data set: yeast display, Sf9 membrane polyspecificity reagent, FACS + sequencing; frameworks hold sequencing errors. The procedure, abridged:
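Galactose-induced (36–48 hours) yeast carrying a synthetic nanobody display library were exposed to 10% biotinylated, detergent-solubilized Sf9 membrane reagent at 4 °C for 1 hour. FACS followed streptavidin microbead enrichment, using low and high (top ~1%) gates for expression (anti-HA) and reagent binding (streptavidin). Colony PCR, MiSeq 2 × 250 sequencing and CDR-length filtering followed. Labels for polyreactivity reflect the gate of origin.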
On to “QVQLVESGGGLVQAGGSLRLSCAASGLTFYRYAMGWYRQAPGKERELVAAIRVSGNTYYADSVKGRFTISRDNAKNTVYLQMNSLKPEDTAVFYCAAIPYYFYGMDYWGQGTQVTVSS”, for which the “polyreactivity (PSR sort gate)” value is given as “high polyreactivity”.

With “QVQLVESGGGLVQAGGSLRLSCAASGRTFYLYAMGWYRPAPGKERELVAAITSGGSTNYADSVKGRFTISRDNAKNTVYLQMNSLKPEDTAVYYCNAYKRGYLYRYNYWGQGTQVTVSS”, the “polyreactivity (PSR sort gate)” value is on record as “high polyreactivity”.

“QVQLVESGGGLVQAGGSLRLICAASGITFYRNARGWYRQAPGKERELVAAITSGTSTYYADSVKGRFTISRDNAKFTVYLQMISLKPEDTAVYYCAKRTPPGYYGFDYWGQGTQVNVSS”: the “polyreactivity (PSR sort gate)” value is recorded as “low polyreactivity”.

Consider “QVQLVESGGGLVQAGGSLRLSCAASGFIFQPYAMGWSRQAPGKERELVAAITSRGGRTYYADSVKGRFTISRDNAKNTVYLQMNSLKPEDTAVYYCNADIYASEYYYWGQGTQLTVSS”, for which the “polyreactivity (PSR sort gate)” value is listed as “low polyreactivity”.

For the sequence “QVQLVESGGGLVQAGGSLRLSCAASGSIFSSYAMGWYRQAPGKERELVAAISSSGDSTYADSVKGRFTISRDNAKNTVYLQMNSLKPEDTAVYDCAVGGAGSDDYWGQGTQVTVSS”, the “polyreactivity (PSR sort gate)” value is reported as “low polyreactivity”.

Take “QVQLVESGGGLVQAGGSLRLSCAASGSTFAKNAMGVYRQAPGKERELVAAISRGGNTYYADSVKGRFTISRDNAKITVYLLMNSLKPEDTAVYYCAARYLFRSLNMDYWGQVTQVTVSS”: the “polyreactivity (PSR sort gate)” value is given as “high polyreactivity”.

With “QVQLVESGGGLVQAGGSLRLSCAASGSIFPVNAMGWYRQAPGKERELVAAISSDGTTYYADSVKGRFTISRDNAKNTVYLQMNSLKPEDTAVYYCAKDRRYYKAYDYWGQGTLVTVSS”, the “polyreactivity (PSR sort gate)” value is listed as “low polyreactivity”.

For the sequence “QVQLVESGGGLVQAGGSLRLSCAASGRTFLVYAMGWYRQPPGTERELVAAITSGGSTYYADSVKGRFTISRDNAKNTVYLQMNSLKPEDTAVYYCAAKIRGYPRRRYDYWGQGTQVTVSS”, the “polyreactivity (PSR sort gate)” value is “high polyreactivity”.

For “QVQLVESGGGIVQAGGSLRLSCAASGFTFSRYTMGWFRPAPGQERELVAAINRRGGSTYYADSVKGRFTISRDNAKHTVYLQLNSVKPADTAVYYCAATYTVRSGNGIANDYWGQGTQVTVSS”, the “polyreactivity (PSR sort gate)” value is recorded as “high polyreactivity”.

Regarding “QVQLVESGGGLVQAGRSLRLSCAASGRTFPPYDMGWYRQAPGKERELVAAITSDGSTSYADSVKGRFTISRDNAKNTVYLQMNRLKPEDTAVYYCNAEYGYSFGYGYYWWFDYWGQGTQVTVSA”, the “polyreactivity (PSR sort gate)” value was “high polyreactivity”.

Regarding “QVQLVESGGGLVQAGGSLRLSCAASGSTLVANAMGWYRQAPGKERELVARITSGTSTYYADSVKGRFTISRDNAKNTVYLQMNSLKPEDTAVYYCAAGRWTRRRTYDSWGQGTQVTVSS”, the “polyreactivity (PSR sort gate)” value was “high polyreactivity”.

In the case of “QVQLVESGGGLVQAGGSLRLICAASGSTFRWNALRWYRQAPGKERELVAAITWSGGSTYYADSVKVRFTISRDNAKNTVYVQMNSLKPEDTAVYYCNACGLFQYDSWGQGTKVTVSS”, the “polyreactivity (PSR sort gate)” value is on record as “low polyreactivity”.

Consider “QVQLVESGGGLVEAGGSLRLSCAASGSIFAVNTMGWYRKAPGKERELVASITRGGSTNYADSVKGRFAISRDNAKKSVYLQMNSQKPEDSAVYYCAARPTWWYDYWGQGNQVTVSS”, for which the “polyreactivity (PSR sort gate)” value is listed as “high polyreactivity”.

In the case of “QVQLVESGGGLVQAGGSLRLSCAASGRSIVGYTMGWYTQAPGKERELVAAITSGGSTYYADSVKGRFTISRDNAKNTVYLQMISLKPEDTAVYYCSAYVRYSTPGKLYQYGYWGQGTQVTVSS”, the “polyreactivity (PSR sort gate)” value is recorded as “high polyreactivity”.

Turning to “QVQLVESGGGLVQAGGSLRLSCAASGSTFTVNGMGWYRQAPGKERELVASITWSGGSTYYADSVKGRFTISRDNAKNTVYLLMNSLKPEDTAVYYCAADEKLYITGYDYWGHGTQVTVSS”, the “polyreactivity (PSR sort gate)” value is reported as “low polyreactivity”.

Consider “QVQLVESGGGLVQAGGSLRLSCAASARTFKPYAMGWYRQAPGKERELVAAISTRGGSTYYADSVKGRFTISRDNAKNTVYLQMNSLKPEDTAVYYCAATQPCRDYDYWGQGTQVTVSS”, for which the “polyreactivity (PSR sort gate)” value is given as “low polyreactivity”.

With “QVQLVESGGGLVQAGGSLRLSCPASGLIFNSYAMGWYRQARGTERELVAAISRHGGITYYADSVKGRFTISRDHAKNTVYLQMNSLKPEDTAVYYCNADSSRRRYSSDYWGQGTQVTVSS”, the “polyreactivity (PSR sort gate)” value was “high polyreactivity”.

Consider “QVQLLESGGGLVQAGGSLRLSCAASGSIFGGNARGWSRQAPGKERELVAAITYSGGSTYYADSVKGRFTISRDNAKNTVYLQMNSLKPEDTAVYYCNADGVVTWYDYWGQGTQVTVSS”, for which the “polyreactivity (PSR sort gate)” value is on record as “low polyreactivity”.

Turning to “QVQLVESGGGLVQAGGSLRLSCAASGSTFDGNAMGWYRQAPGKDRELVAAITWRDGSPSYADSVKGRFTISRDNAKNTVYLQMNSLKPEDTAVYYCNADPGYLDEEYWGQGTQVTVSS”, the “polyreactivity (PSR sort gate)” value is given as “low polyreactivity”.

For the sequence “QVQLVESGGGLVQAGGSLRLSCAASGSTIVGYAMGWYRQAPGKERELVAAISGSGTSTYYADSVKGRFTISRDNAKNTVYLQMNSLKPEDSAVYYCNADPIFVYSSYNYWGQGTQVTVSS”, the “polyreactivity (PSR sort gate)” value is on record as “low polyreactivity”.

With “QVQLVESGGGLVQAGGSLRLSCAASGSTFGIYPMAGNRTEPGKERELVAAISSGGSTNYADSVKGRFTISRDNAKNSVYLQMNSLNPEDTAVYYCAVESVYEYGGYVDSAYDYWGQGTQVTVSS”, the “polyreactivity (PSR sort gate)” value was “low polyreactivity”.

In the case of “QVQLVESGGGLVQAGGSLRLSCAASGGIFAPNAMGWYRQAPGKEREFVAAISTGGGSTRYADSVKGRFTISRDNAKNTVYLQMNSLKPEDTAVYYCAAELWYTWLGSPYDYWGQGTQVTVSS”, the “polyreactivity (PSR sort gate)” value is “low polyreactivity”.

For the sequence “QVQLVESGGGLVHAGGSLRLSCAASGIIFDDYAMGWNRQAPGKERELVAAIRSGVSTNYADSVKGRFTISRDNAKNTVYLQMNSLKPEDTAVYYCAARNTAPYFTEYDYWGQGTQVTVSS”, the “polyreactivity (PSR sort gate)” value is recorded as “low polyreactivity”.

For “QVQLVESGGGLVQAGGSLRLSCAASGRIVWSYGMGWYRQAPGKERELVAAITNTGDGTYYADSVKGRFTISRDNAKNTVYLQMNSLKPEDTAVYYCAVDYRGYWYWEYDYWGQGTQVTVSS”, the “polyreactivity (PSR sort gate)” value is on record as “high polyreactivity”.

Turning to “QVQLVESGGGLVQAGGSLRLSCAASGITFAPYAMGWYRQAPGKEREFVAGISWSGTTTYYADSVKGRFTISRDNAKNTVYLQMNSLKPEDTAVYYCATDYFNYGYFDFRWYYYWGQGTQVTVSS”, the “polyreactivity (PSR sort gate)” value is “high polyreactivity”.

As to “QFQLVESGGGLVQAVVSLRLSCAASGSIFDIYDMGWYRQAPGKETELDAAIRSGDRTHYADSVKGRFTISRDNAKITVYLQMNSLKPEDTAVYYCAADRYIYLNREHDYWGQGTQVTVSS”, the “polyreactivity (PSR sort gate)” value is given as “low polyreactivity”.

With “QVQLVESGGGLVQAGGSLRLSCAASGFIFSKYAMGWYRQAPGKERELVAAISTSGASTYYADSVKGRFTISRDNAKNTVYLQMNSLKPEDTAVYYCNVPRYSPIRNYDYWGQGTQVTVSS”, the “polyreactivity (PSR sort gate)” value is on record as “high polyreactivity”.

Consider “QVQLEESGGGLVQAGGSLRLSCAGSGFISNGYALGWYRQAPGKEREFVASISSTGGRTYYADSVKGRFTISRDNAKNTVYLLMNSLKPEDTSVYYCAKDPQPRYWVDYWGQGTQVTVSS”, for which the “polyreactivity (PSR sort gate)” value is “low polyreactivity”.

On to “QVQLVESGGGLVQAGGSLRLSCAASGSIFKPYAMGWYRQAPGKERELVAAITRSGGSTYYADSVKGRFTISRDKAKNTVYLQMNSLKPEDTAVYYCAAGNAPYFRYGSKKYGYWGQGTQVTVSS”, for which the “polyreactivity (PSR sort gate)” value was “high polyreactivity”.

With “QVQLEESGGGLVQAGGSLRLSCAASGSIFFYYAMGWYRQAPGKERELVAAIRSGTSTNYADSVKGRFTISRDNAKNTVYLQMNSLKPEDTAVYYCAARFPGGCYGMDYWGQGTQVTVSS”, the “polyreactivity (PSR sort gate)” value is “low polyreactivity”.

For “QVQLVESGGGLVQAGGSLRLSCAASGSTFYGYAMGWYRQAPGKERELVAAISSGGRTKYADSVKGRFTISRDTAKNTVYLQMNSLKPEDTAVYYCYVSYLVYRWKFGWSMDYWGQGTQVTLSS”, the “polyreactivity (PSR sort gate)” value is “low polyreactivity”.

Take “QVQLVESGGGLVQAGGSLRLSCDASGRIFVYYAMGWYRQAPGKERELVAAINSGGTTKYADSVKGRFTISRDNAKNTVYLQMNSLKPEDTAVYYCAAEPLTPSRDRVPYEYYYWGQGTQVTVSS”: the “polyreactivity (PSR sort gate)” value is reported as “high polyreactivity”.

Regarding “QVQHVESGGGLVQAGGSLRLSCAASGSTFAYNDMGRYRQAPGKERELVADIRSGGNTNYADSVKGRFTISRDNAKNTVYLQMNSLKPEDTAVYYCATDGYRIDVYHPDYRYDYWGQGTQVTVSS”, the “polyreactivity (PSR sort gate)” value is on record as “low polyreactivity”.

On to “QVQLVESGGGLVQAGGSLRLSCAASGFIFPPYDMGWYRQAPGKERELVAGISDVGTTYYADSVKGRYTISRDNAKNPVYLQMNSLKPEDSAVYYCAAESQGDDQFWTGGYDSWGQGTQVTVSS”, for which the “polyreactivity (PSR sort gate)” value is given as “low polyreactivity”.

As to “QVQLVESGGGLVQAGGSLRLSCAASGRMFKYSDMGWYRQAPGKERALVAGISISGSTSYADSVKGRFTISRDNAKNTVYLQMNSLKPEDTAVYYCAADSRGGYPSLYEYDYWGQGTQETVSS”, the “polyreactivity (PSR sort gate)” value is listed as “low polyreactivity”.

Take “QVQLVESGGGLVHAGGSLRLSCAASGRIFVRNDMGCYRQAPGKERELVAAISWDGGSTYYADSVKGRFTISRDNAKNTVYLQMNSLKPEDTAVYYCATDATRPWYDYWGQGTQVTVSS”: the “polyreactivity (PSR sort gate)” value is on record as “low polyreactivity”.

Turning to “QVQLVESGGGLVQAGGSLRLSCAASGSTFLVYAMGWYRQAPGKERELVARINWRGSSTYADSVKGRFTISRDNAKNTVYLQMNSLKPEDTAVYYCNADSYRYYHPTYIYDYWGQGTQVTVSS”, the “polyreactivity (PSR sort gate)” value was “low polyreactivity”.

“QVQLVESGGGLLQAGGSLRLICAASGITFRYYTMGWYRQAPVKETELVAAITWSGSSTYYADSVKGRFTISRDNAKNTVYLQMNSLKPEDTAVYYCAKPYHQRSAKVDYWGQGTQVTVSS”: the “polyreactivity (PSR sort gate)” value is “low polyreactivity”.

Consider “QVQLVESGGGLVQAGGSLRLSCAASGLTFNRYAMGCYRQAPGKEREFVAAISVRSGSTYYADSVKGRFTISRDNAKNTVYLQMNSLKPEDTAVYYCAAKIRKDYSIQGYDYWGQGTQVTVSS”, for which the “polyreactivity (PSR sort gate)” value is “high polyreactivity”.

For “QVQLVESGGGLVQAGGSLRLSCAASGFIFYSNAMGSYRQAPGKERELVASITGDGGTTYYADSVKGRFTISRDNAKTTGYLEMNSLKPEDTAVYYCAKDYIYRGYYTDFRYEDYDYWGQGTQVTVSS”, the “polyreactivity (PSR sort gate)” value is on record as “low polyreactivity”.

As for “QVQLVESGGGLVQAGGSLRLSCAASGSTFYANAMGWYIQPPGKERELVAAISRSGGRTYYADSVKGRFTISRDTAKKTVYLQMNSLKTEDNSVYYCAKAYHHSEFDYWGQGTQVTVSS”, the “polyreactivity (PSR sort gate)” value is listed as “high polyreactivity”.
